From patent US20040219159, “Methods and compositions for therapeutic intervention in infectious disease” (published 2004) come the findings set out here.

This series concerns the target T1, HspR (Rv0353) (Mycobacterium tuberculosis, UniProt O06302 O06302:1-126).
T1 sequence: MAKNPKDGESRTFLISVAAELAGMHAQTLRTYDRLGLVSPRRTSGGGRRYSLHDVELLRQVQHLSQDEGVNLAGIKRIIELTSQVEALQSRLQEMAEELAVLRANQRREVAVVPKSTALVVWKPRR
The experiment in a line: EMSA. The conditions noted are these: tags: His-tag (pQE30, expressed in E. coli SG13009, renatured from urea); label: 32P; annealed 40-mers with short 5' overhangs.

B1: HAIR2 oligonucleotide DNAKIR-F/DNAKIR-R (dsDNA)
DNA 1: GCTCAGTAAGTTGAGTGCATCAGGCTCAGCTCTGAATTGA
DNA 2: GTCAATTCAGAGCTGAGCCTGATGCACTCAACTTACTGAG
With B1, the binding result is reported as “binds”.
